Laboratory results from patent US20130109581A1, “POSITIVELY CHARGED SPECIES AS BINDING REAGENTS IN THE SEPARATION OF PROTEIN AGGREGATES FROM MONOMERS” (priority 2009, published 2013).

Target: Abeta 1-40 monomer (UniProt P05067)
Assay: MPA bead capture, Abeta 1-40 read-out of the CSF sample (noise)

AAAKAA (peptide)
average RLU (40): 134 RLU

AAKKAA (peptide)
average RLU (40): 147 RLU

AAKKKA (peptide)
average RLU (40): 159 RLU

AKKKKA (peptide)
average RLU (40): 156 RLU

AKKKKK (peptide)
average RLU (40): 176 RLU

ANFFAHSS (peptide)
average RLU (40): 543 RLU

DFKLNFKF (peptide)
average RLU (40): 260 RLU
